The values that follow come from US6413737.

The labels stand for the following.
B1: preproecarin S396, S170, His6 (pDOEC35) (protein)
chain: CSIILGSGNVNDYEVVYPQKVTALPKGAVQQPEQKYEDAMQYEFEVKGEPVVLHLEKNKELFSEDYSETHYSSDDREITTNPSVEDHCYYHGRIQNDAESTASISACNGLKGHFKLRGETYFIEPLKIPDSEAHAVYKYENIENEDEAPKMSGVTQDNWESDEPIKKTLGLIVPPHERKFEKKFIELVVVVDHSMVTKYNNDSTAIRTWIYEMLNTVNEIYLPFNIRVALVGLEFWCNGDLINVTSTADDTLHSFGEWRASDLLNRKRHDHAQLLTNVTLDHSTLGITFVYGMCKSDRSVELILDYSNITFNMAYIIAHEMGHSLGMLHDTKFCTCGAKPCIMFGKESIPPPKEFSSCSYDQYNKYLLKYNPKCILDSPLRKDIASPAVCGNEIWEEGEECDCGSPADCRNPCCDAATCKLKPGAECGNGECCDKCKIRKAGTECRPARDDCDVAEHCTGQSAECPRNEFQRNGQPCLNNSGYCYNGDCPIMLNQCIALFSPSATVAQDSCFQRNLQGSYYGYCTKEIGYYGKRFPCAPQDVKCGRLYCLDNSFKKNMRCKNDYSYADENKGIVEPGTKCEDGKVCINRKCVDVNTAYHHHHHH
B2: preproecarin P396, His6 (pDOEC34) (protein)
chain: CSIILGSGNVNDYEVVYPQKVTALPKGAVQQPEQKYEDAMQYEFEVKGEPVVLHLEKNKELFSEDYSETHYSSDDREITTNPSVEDHCYYHGRIQNDAESTASISACNGLKGHFKLRGETYFIEPLKIPDSEAHAVYKYENIENEDEAPKMCGVTQDNWESDEPIKKTLGLIVPPHERKFEKKFIELVVVVDHSMVTKYNNDSTAIRTWIYEMLNTVNEIYLPFNIRVALVGLEFWCNGDLINVTSTADDTLHSFGEWRASDLLNRKRHDHAQLLTNVTLDHSTLGITFVYGMCKSDRSVELILDYSNITFNMAYIIAHEMGHSLGMLHDTKFCTCGAKPCIMFGKESIPPPKEFSSCSYDQYNKYLLKYNPKCILDPPLRKDIASPAVCGNEIWEEGEECDCGSPADCRNPCCDAATCKLKPGAECGNGECCDKCKIRKAGTECRPARDDCDVAEHCTGQSAECPRNEFQRNGQPCLNNSGYCYNGDCPIMLNQCIALFSPSATVAQDSCFQRNLQGSYYGYCTKEIGYYGKRFPCAPQDVKCGRLYCLDNSFKKNMRCKNDYSYADENKGIVEPGTKCEDGKVCINRKCVDVNTAYHHHHHH
B3: preproecarin S396, His6 (pDOEC30) (protein)
chain: CSIILGSGNVNDYEVVYPQKVTALPKGAVQQPEQKYEDAMQYEFEVKGEPVVLHLEKNKELFSEDYSETHYSSDDREITTNPSVEDHCYYHGRIQNDAESTASISACNGLKGHFKLRGETYFIEPLKIPDSEAHAVYKYENIENEDEAPKMCGVTQDNWESDEPIKKTLGLIVPPHERKFEKKFIELVVVVDHSMVTKYNNDSTAIRTWIYEMLNTVNEIYLPFNIRVALVGLEFWCNGDLINVTSTADDTLHSFGEWRASDLLNRKRHDHAQLLTNVTLDHSTLGITFVYGMCKSDRSVELILDYSNITFNMAYIIAHEMGHSLGMLHDTKFCTCGAKPCIMFGKESIPPPKEFSSCSYDQYNKYLLKYNPKCILDSPLRKDIASPAVCGNEIWEEGEECDCGSPADCRNPCCDAATCKLKPGAECGNGECCDKCKIRKAGTECRPARDDCDVAEHCTGQSAECPRNEFQRNGQPCLNNSGYCYNGDCPIMLNQCIALFSPSATVAQDSCFQRNLQGSYYGYCTKEIGYYGKRFPCAPQDVKCGRLYCLDNSFKKNMRCKNDYSYADENKGIVEPGTKCEDGKVCINRKCVDVNTAYHHHHHH
B4: preproecarin S396, delta III, IV (pDOEC38) (protein)
chain: CSIILGSGNVNDYEVVYPQKVTALPKGAVQQPEQKYEDAMQYEFEVKGEPVVLHLEKNKELFSEDYSETHYSSDDREITTNPSVEDHCYYHGRIQNDAESTASISACNGLKGHFKLRGETYFIEPLKIPDSEAHAVYKYENIENEDEAPKMCGVTQDNWESDEPIKKTLGLIVPPHERKFEKKFIELVVVVDHSMVTKYNNDSTAIRTWIYEMLNTVNEIYLPFNIRVALVGLEFWCNGDLINVTSTADDTLHSFGEWRASDLLNRKRHDHAQLLTNVTLDHSTLGITFVYGMCKSDRSVELILDYSNITFNMAYIIAHEMGHSLGMLHDTKFCTCGAKPCIMFGKESIPPPKEFSSCSYDQYNKYLLKYNPKCILDSP
B5: preproecarin S396, S170 delta III, IV (pDOEC40) (protein)
chain: CSIILGSGNVNDYEVVYPQKVTALPKGAVQQPEQKYEDAMQYEFEVKGEPVVLHLEKNKELFSEDYSETHYSSDDREITTNPSVEDHCYYHGRIQNDAESTASISACNGLKGHFKLRGETYFIEPLKIPDSEAHAVYKYENIENEDEAPKMSGVTQDNWESDEPIKKTLGLIVPPHERKFEKKFIELVVVVDHSMVTKYNNDSTAIRTWIYEMLNTVNEIYLPFNIRVALVGLEFWCNGDLINVTSTADDTLHSFGEWRASDLLNRKRHDHAQLLTNVTLDHSTLGITFVYGMCKSDRSVELILDYSNITFNMAYIIAHEMGHSLGMLHDTKFCTCGAKPCIMFGKESIPPPKEFSSCSYDQYNKYLLKYNPKCILDSP
B6: preproecarin S396, delta IV (pDOEC37) (protein)
chain: CSIILGSGNVNDYEVVYPQKVTALPKGAVQQPEQKYEDAMQYEFEVKGEPVVLHLEKNKELFSEDYSETHYSSDDREITTNPSVEDHCYYHGRIQNDAESTASISACNGLKGHFKLRGETYFIEPLKIPDSEAHAVYKYENIENEDEAPKMCGVTQDNWESDEPIKKTLGLIVPPHERKFEKKFIELVVVVDHSMVTKYNNDSTAIRTWIYEMLNTVNEIYLPFNIRVALVGLEFWCNGDLINVTSTADDTLHSFGEWRASDLLNRKRHDHAQLLTNVTLDHSTLGITFVYGMCKSDRSVELILDYSNITFNMAYIIAHEMGHSLGMLHDTKFCTCGAKPCIMFGKESIPPPKEFSSCSYDQYNKYLLKYNPKCILDSPLRKDIASPAVCGNEIWEEGEECDCGSPADCRNPCCDAATCKLKPGAECGNGECCDKCKIRKAGTECRPARDDCDVAEHCTGQSAECPRNEFQR
B7: preproecarin S396, S170, delta IV (pDOEC39) (protein)
chain: CSIILGSGNVNDYEVVYPQKVTALPKGAVQQPEQKYEDAMQYEFEVKGEPVVLHLEKNKELFSEDYSETHYSSDDREITTNPSVEDHCYYHGRIQNDAESTASISACNGLKGHFKLRGETYFIEPLKIPDSEAHAVYKYENIENEDEAPKMSGVTQDNWESDEPIKKTLGLIVPPHERKFEKKFIELVVVVDHSMVTKYNNDSTAIRTWIYEMLNTVNEIYLPFNIRVALVGLEFWCNGDLINVTSTADDTLHSFGEWRASDLLNRKRHDHAQLLTNVTLDHSTLGITFVYGMCKSDRSVELILDYSNITFNMAYIIAHEMGHSLGMLHDTKFCTCGAKPCIMFGKESIPPPKEFSSCSYDQYNKYLLKYNPKCILDSPLRKDIASPAVCGNEIWEEGEECDCGSPADCRNPCCDAATCKLKPGAECGNGECCDKCKIRKAGTECRPARDDCDVAEHCTGQSAECPRNEFQR

The series has as its target human prothrombin, P00734.
Regarding B1, the “Ecarin Activity, 48 Hours, +APMA” value is on record as 7,526; the “Ecarin Activity, 48 Hours, -APMA” value is listed as 12,127; the “Ecarin Activity, 120 Hours, +APMA” value was 14,850; the “Ecarin Activity, 120 Hours, -APMA” value is recorded as 20,524. Also, the prothrombin converting activity entry is “Alteration of position 170 to serine resulted in constituitive activation of proecarin, which was partially inhibited by the addition of APMA”.
As for B2, the Ecarin Activity, 48 Hours, +APMA turned out to be 32; the Ecarin Activity, 48 Hours, -APMA is 36; the Ecarin Activity, 120 Hours, +APMA was determined as 0; the Ecarin Activity, 120 Hours, -APMA was 43. In addition, the prothrombin converting activity entry was “Proecarin having the sequence disclosed in Nishida et al. (supra) had no activity in the presence or absence of APMA”.
As to B3, the “Ecarin Activity, 48 Hours, +APMA” value is on record as 74,077; the “Ecarin Activity, 48 Hours, -APMA” value is 20,079; the “Ecarin Activity, 120 Hours, +APMA” value is given as 164,602; the “Ecarin Activity, 120 Hours, -APMA” value is listed as 28,372. The “conversion of prothrombin to thrombin by immobilized ecarin, Coomassie stained SDS-PAGE” value is “essentially complete (greater than 95%)”; the prothrombin converting activity entry was “Proecarin having a serine at position 396 was active in the absence of APMA, and the amount of activity increased several fold by pretreatment with APMA”.
With B4, the Ecarin Activity, 48 Hours, +APMA worked out at 0; the Ecarin Activity, 48 Hours, -APMA came to 0; the Ecarin Activity, 120 Hours, +APMA amounted to 14; the Ecarin Activity, 120 Hours, -APMA was found to be 0. For the same protein, the prothrombin converting activity result is “Deletion of the Cys-rich domain (positions 491 to 616) or the disintegrin and Cys-rich domains (398-616) abolished all ecarin activity in the presence or absence of APMA”.
Protein B5 gave an Ecarin Activity, 48 Hours, +APMA of 50; an Ecarin Activity, 48 Hours, -APMA of 0; an Ecarin Activity, 120 Hours, +APMA of 0; an Ecarin Activity, 120 Hours, -APMA of 0. In addition, the prothrombin converting activity result is “Deletion of the Cys-rich domain (positions 491 to 616) or the disintegrin and Cys-rich domains (398-616) abolished all ecarin activity in the presence or absence of APMA”.
As for B6, the Ecarin Activity, 48 Hours, +APMA was found to be 0; the Ecarin Activity, 48 Hours, -APMA was 0; the Ecarin Activity, 120 Hours, +APMA stood at 68; the Ecarin Activity, 120 Hours, -APMA worked out at 34. In addition, the prothrombin converting activity entry was “Deletion of the Cys-rich domain (positions 491 to 616) or the disintegrin and Cys-rich domains (398-616) abolished all ecarin activity in the presence or absence of APMA”.
B7: the Ecarin Activity, 48 Hours, +APMA is 0; the Ecarin Activity, 48 Hours, -APMA was found to be 0; the Ecarin Activity, 120 Hours, +APMA was found to be 0; the Ecarin Activity, 120 Hours, -APMA is 0. For the same protein, the prothrombin converting activity entry is “Deletion of the Cys-rich domain (positions 491 to 616) or the disintegrin and Cys-rich domains (398-616) abolished all ecarin activity in the presence or absence of APMA”.
